Test results as given in publication PMC12676778, “Long-tailed class I myosins rely on tail-mediated phosphoinositide recognition for specific membrane recruitment” (Cell Communication and Signaling : CCS, 2025).

Key:
microtubules [1] = target: microtubules (UniProt P02550)
microtubules [2] = target: microtubules (UniProt P02550); remark: listed apart in the source
F-actin = F-actin (UniProt P68135); experiment: co-sedimentation; YFP fluorescence of pellet and supernatant; increasing F-actin concentrations; 5 mM Tris pH 7.4, 100 mM KCl, 0.04% NaN3, 2 mM MgCl2; 20,000 g, 30 min, 4 °C

microtubules, sequence (P02550 whole entry, chain 1 of 2): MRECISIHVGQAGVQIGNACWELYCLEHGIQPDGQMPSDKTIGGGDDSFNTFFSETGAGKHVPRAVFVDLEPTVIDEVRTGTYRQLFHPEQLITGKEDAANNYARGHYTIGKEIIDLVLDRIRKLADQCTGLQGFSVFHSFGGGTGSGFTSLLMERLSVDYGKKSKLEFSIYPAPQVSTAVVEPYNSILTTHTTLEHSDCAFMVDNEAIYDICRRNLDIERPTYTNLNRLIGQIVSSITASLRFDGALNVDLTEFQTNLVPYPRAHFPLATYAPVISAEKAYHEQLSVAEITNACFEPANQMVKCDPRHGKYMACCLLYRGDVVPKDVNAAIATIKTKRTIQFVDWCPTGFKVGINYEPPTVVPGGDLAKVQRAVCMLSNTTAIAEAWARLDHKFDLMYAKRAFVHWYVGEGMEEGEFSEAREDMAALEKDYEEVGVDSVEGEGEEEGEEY
microtubules, sequence (P02554 whole entry, chain 2 of 2, further chain): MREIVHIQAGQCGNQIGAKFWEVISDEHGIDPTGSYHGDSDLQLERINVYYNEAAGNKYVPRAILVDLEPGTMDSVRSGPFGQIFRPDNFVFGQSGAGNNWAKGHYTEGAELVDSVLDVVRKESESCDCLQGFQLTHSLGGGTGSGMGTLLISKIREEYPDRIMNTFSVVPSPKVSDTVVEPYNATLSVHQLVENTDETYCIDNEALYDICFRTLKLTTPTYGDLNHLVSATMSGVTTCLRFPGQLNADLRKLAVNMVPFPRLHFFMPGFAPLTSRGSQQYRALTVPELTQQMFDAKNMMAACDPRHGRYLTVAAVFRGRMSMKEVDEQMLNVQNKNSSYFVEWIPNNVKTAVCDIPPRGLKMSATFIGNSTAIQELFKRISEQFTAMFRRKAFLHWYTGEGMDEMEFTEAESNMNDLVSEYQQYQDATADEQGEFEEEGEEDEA

inhibition of the cold-induced depolymerization of microtubules, IC50 (microtubules [1]): 0.015 µM
cold-induced depolymerization assays of microtubules, IC50 (microtubules [2]): 0.02 µM
Kd (F-actin): 12 µM
Substance: myosin-1D tail (amino acids 717–1113) (domain or fragment)
